EP2363413A1 (YISSUM RESEARCH DEVELOPMENT COMPANY OF THE HEBREW …, dated 2011)

Columns and labels:
[1] = target: staphylococcal enterotoxin B (SEB) (Staphylococcus aureus) (UniProt P01552); assay: SPR (BIAcore 3000, 25°C), SEB immobilized on CM5 chip, sB7-2 injected
[2] = target: soluble CD28 (sCD28), human CD28 extracellular domain fused to His6-tagged human IgG1 Fc (human) (UniProt P10747); assay: SPR, format not stated (sCD28 was among the immobilized ligands)
[3] = target: T1, staphylococcal enterotoxin B (SEB) (Staphylococcus aureus, UniProt P01552 28-266); assay: SPR (BIAcore 3000, 25°C), SEB immobilized on CM5 chip, soluble receptor injected
T1 sequence: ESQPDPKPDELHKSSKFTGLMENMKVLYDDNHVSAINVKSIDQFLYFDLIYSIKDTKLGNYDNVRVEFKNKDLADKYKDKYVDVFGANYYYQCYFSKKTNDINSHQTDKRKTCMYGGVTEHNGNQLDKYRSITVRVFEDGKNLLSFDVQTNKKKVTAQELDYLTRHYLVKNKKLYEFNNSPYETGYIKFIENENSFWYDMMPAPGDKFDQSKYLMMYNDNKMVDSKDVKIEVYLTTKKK

soluble B7-2 (sB7-2), human B7-2 extracellular domain fused to His6-tagged human IgG1 Fc (from UniProt P42081 20-239) (Fc fusion)
Kd [1]: 25 nM

anti-CD28 monoclonal antibody MAB342, clone 37407.111 (R&D Systems)
Kd [2]: 2 nM

B1: soluble ICOS (sICOS), human ICOS extracellular domain fused to His6-tagged human IgG1 Fc (Fc fusion)
chain (part 1 of 2): EINGSANYEMFIFHNGGVQILCKYPDIVQQFKMQLLKGGQILCDLTKTKGSGNTVSIKSLKFCHSQLSNNSVSFFLYNLDHSHANYYFCNLSIFDPPPFKVTLTGGYLHIYESQLCCQLKF
chain (part 2 of 2): HHHHHH
notes: range 21-141
Kd [3]: 21 nM
